According to PMC11344281 (Protein Science : A Publication of the Protein Society, 2024):

B2: Use1 SNARE domain (aa 174–239) (domain or fragment)
chain: QRHQGLQEKLAEEMLGLARSLKTNTLAAQSVIKKDNQTLSHSLKMADQNLEKLKLESERLEQHAQK
B4: syntaxin 18 SNARE domain (aa 229–312) (domain or fragment)
chain: EEIQMFEQENQRLIGEMNSLFDEVRQIEGKVVEISRLQEIFTEKVLQQETEIDSIHQLVVGATENIKEGNEDIREAIKNNAGFR

Legend:
[1] = molecular target: B4; experiment: native gel or EMSA + SEC
[2] = molecular target: B2; experiment: native gel or EMSA + SEC
[3] = molecular target: B4; experiment: native gel or EMSA
[4] = molecular target: synaptobrevin 2 (aa 1–96) (Rattus norvegicus, UniProt P63045 1-96); experiment: native gel or EMSA + SEC
synaptobrevin 2 (aa 1–96), sequence (P63045 1-96): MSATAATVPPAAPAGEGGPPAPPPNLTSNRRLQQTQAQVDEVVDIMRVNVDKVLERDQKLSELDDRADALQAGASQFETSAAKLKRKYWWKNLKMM

B1: Sec20 SNARE domain (aa 133–198) (domain or fragment)
chain: QTSSSITESLMGISRMMSQQVQQSEEAMQTLVSSSRTLLDANEEFKSMSGTIQLGRKLITKYNRRE
[1]
  binding result: binds
[2]
  binding result: binds

## B2
[1]
  binding result: binds

B3: U_SNAP (Sec20, aa 133–198; Use1, aa 174–239), chimeric Qbc-SNARE with the SNAP-25 linker (other)
chain: QTSSSITESLMGISRMMSQQVQQSEEAMQTLVSSSRTLLDANEEFKSMSGTIQLGRKLITKYNRREGLSVSPSNKLKSSDAYKKAWGNNQDGVVASQPARVVDEREQMAISGGFIRRVTNDQRHQGLQEKLAEEMLGLARSLKTNTLAAQSVIKKDNQTLSHSLKMADQNLEKLKLESERLEQHAQK
[3]
  binding result: binds

## B4
[4]
  binding result: binds
